Test results: US20260242419A1, “A CYCLIC PEPTIDE FOR TRAPPING INTERLEUKIN-1 BETA” (Merck Sharp & Dohme LLC, priority 2023, published 2026)
Non-standard residues stand in square brackets, D forms with d. No end group written: not given here. Phe(4-(5-CO2H-2-pyrimidyl)) = N[C@@H](Cc1ccc(-c2ncc(C(=O)O)cn2)cc1)C(=O)O; Phe(4-(4-Ac-piperazinyl)) = CC(=O)N1CCN(c2ccc(C[C@H](N)C(=O)O)cc2)CC1; dPro(4R-(4-pyridylmethyl)) = O=C(O)[C@H]1C[C@@H](Cc2ccncc2)CN1; Trp(βS-Me,4-F) = C[C@@H](c1c[nH]c2cccc(F)c12)[C@H](N)C(=O)O; Bip(4'-COOH) = N[C@@H](Cc1ccc(-c2ccc(C(=O)O)cc2)cc1)C(=O)O; Ala(1-bicyclo(1.1.1)pentyl) = N[C@@H](CC12CC(C1)C2)C(=O)O; dPro(4R-Bzl(4-F)) = O=C(O)[C@H]1C[C@@H](Cc2ccc(F)cc2)CN1; Ala(pyrimidin-5-yl) = N[C@@H](Cc1cncnc1)C(=O)O; Phe(4-COOH) = N[C@@H](Cc1ccc(C(=O)O)cc1)C(=O)O; Pro(cis-4-F) = O=C(O)[C@@H]1C[C@H](F)CN1; Ala(4-THP) = N[C@@H](CC1CCOCC1)C(=O)O; cisHyp = O=C(O)[C@@H]1C[C@H](O)CN1; 4Pal = N[C@@H](Cc1ccncc1)C(=O)O; aThr = C[C@H](O)[C@H](N)C(=O)O; αMeD = C[C@](N)(CC(=O)O)C(=O)O; d(αMeS) = C[C@@](N)(CO)C(=O)O; Dab = NCC[C@H](N)C(=O)O; Aib = CC(C)(N)C(=O)O; Sar = CNCC(=O)O

B1: SEQ ID NO: 204 (peptide)
peptide: cyclo([Bip(4'-COOH)][Ala(1-bicyclo(1.1.1)pentyl)][Phe(4-COOH)]G[Pro(cis-4-F)][Trp(βS-Me,4-F)][Aib]SW[d(αMeS)][Ala(4-THP)]Q[Dab]G[dPro(4R-(4-pyridylmethyl))])
modifications: ring closure inferred; not fully specified (bridges); printed as Bip4CO2H-AlaPent-Phe4COOH-G-Proc4F-SbMeW4F-Aib-S-W-daMeS-AlaTHP4-Q-Dab-G-dProc4CH24Pal, cyclic (macrolactam)
B2: SEQ ID NO: 206 (peptide)
peptide: cyclo([Bip(4'-COOH)][4Pal][Phe(4-COOH)]G[Pro(cis-4-F)][Trp(βS-Me,4-F)][Aib]SW[d(αMeS)][Ala(pyrimidin-5-yl)]Q[Dab][Sar][dPro(4R-(4-pyridylmethyl))])
modifications: ring closure inferred; not fully specified (bridges); printed as Bip4CO2H-4Pal-Phe4COOH-G-Proc4F-SbMeW4F-Aib-S-W-daMeS-PyrimAla-Q-Dab-Sar-dProc4CH24Pal, cyclic (macrolactam)
B3: SEQ ID NO: 195 (peptide)
peptide: [Bip(4'-COOH)][4Pal][Phe(4-COOH)]G[cisHyp][Trp(βS-Me,4-F)][Aib]SW[d(αMeS)][Ala(pyrimidin-5-yl)]Q[Dab]G[dPro(4R-(4-pyridylmethyl))]
modifications: lactam (positions not given here); also: macrolactam ring, closure sites not given here
B4: SEQ ID NO: 199 (peptide)
peptide: cyclo([Bip(4'-COOH)][4Pal][Phe(4-COOH)]G[cisHyp][Trp(βS-Me,4-F)][Aib]SW[αMeD][Ala(4-THP)]QSG[dPro(4R-(4-pyridylmethyl))])
modifications: ring closure inferred; not fully specified (bridges); printed as Bip4CO2H-4Pal-Phe4COOH-G-Proc4OH-SbMeW4F-Aib-S-W-aMeD-AlaTHP4-Q-S-G-dProc4CH24Pal, cyclic (macrolactam)
B5: SEQ ID NO: 190 (peptide)
peptide: [Bip(4'-COOH)][Ala(1-bicyclo(1.1.1)pentyl)][Phe(4-COOH)]G[cisHyp][Trp(βS-Me,4-F)][Aib]SW[d(αMeS)][Ala(pyrimidin-5-yl)]Q[Dab]G[dPro(4R-(4-pyridylmethyl))]
modifications: lactam (positions not given here); also: macrolactam ring, closure sites not given here
B6: SEQ ID NO: 197 (peptide)
peptide: [Phe(4-(5-CO2H-2-pyrimidyl))][4Pal][Phe(4-COOH)]G[cisHyp][Trp(βS-Me,4-F)][Aib]SW[Aib][Ala(pyrimidin-5-yl)]Q[Dab]G[dPro(4R-(4-pyridylmethyl))]
modifications: lactam (positions not given here); also: macrolactam ring, closure sites not given here
B7: SEQ ID NO: 203 (peptide)
peptide: cyclo([Bip(4'-COOH)][Ala(1-bicyclo(1.1.1)pentyl)][Phe(4-COOH)]G[Pro(cis-4-F)][Trp(βS-Me,4-F)][Aib]SW[αMeD]VQ[Dab]G[dPro(4R-(4-pyridylmethyl))])
modifications: ring closure inferred; not fully specified (bridges); printed as Bip4CO2H-AlaPent-Phe4COOH-G-Proc4F-SbMeW4F-Aib-S-W-aMeD-V-Q-Dab-G-dProc4CH24Pal, cyclic (macrolactam)
B8: SEQ ID NO: 191 (peptide)
peptide: [Bip(4'-COOH)][Ala(1-bicyclo(1.1.1)pentyl)][Phe(4-COOH)]G[cisHyp][Trp(βS-Me,4-F)][Aib]SW[αMeD][Ala(4-THP)]Q[Dab]G[dPro(4R-(4-pyridylmethyl))]
modifications: lactam (positions not given here); also: macrolactam ring, closure sites not given here
B9: SEQ ID NO: 194 (peptide)
peptide: [Bip(4'-COOH)][4Pal][Phe(4-COOH)]G[cisHyp][Trp(βS-Me,4-F)][Aib]SW[Aib][Ala(pyrimidin-5-yl)]Q[Dab]G[dPro(4R-(4-pyridylmethyl))]
modifications: lactam (positions not given here); also: macrolactam ring, closure sites not given here
B10: SEQ ID NO: 201 (peptide)
peptide: cyclo([Bip(4'-COOH)][4Pal][Phe(4-COOH)]G[cisHyp][Trp(βS-Me,4-F)][Aib]SW[αMeD][Ala(4-THP)]Q[Dab]G[dPro(4R-(4-pyridylmethyl))])
modifications: ring closure inferred; not fully specified (bridges); printed as Bip4CO2H-4Pal-Phe4COOH-G-Proc4OH-SbMeW4F-Aib-S-W-aMeD-AlaTHP4-Q-Dab-G-dProc4CH24Pal, cyclic (macrolactam)
B11: SEQ ID NO: 189 (peptide)
peptide: [Bip(4'-COOH)][4Pal][Phe(4-COOH)]G[Pro(cis-4-F)][Trp(βS-Me,4-F)][Aib]SW[αMeD][Ala(4-THP)]QSG[dPro(4R-(4-pyridylmethyl))]
modifications: lactam (positions not given here); also: macrolactam ring, closure sites not given here
B12: SEQ ID NO: 193 (peptide)
peptide: [Bip(4'-COOH)][Ala(1-bicyclo(1.1.1)pentyl)][Phe(4-COOH)]G[Pro(cis-4-F)][Trp(βS-Me,4-F)][Aib]SW[αMeD][Ala(4-THP)]Q[Dab]G[dPro(4R-(4-pyridylmethyl))]
modifications: lactam (positions not given here); also: macrolactam ring, closure sites not given here
B13: SEQ ID NO: 188 (peptide)
peptide: [Phe(4-(5-CO2H-2-pyrimidyl))][Ala(1-bicyclo(1.1.1)pentyl)][Phe(4-COOH)]G[Pro(cis-4-F)][Trp(βS-Me,4-F)][Aib]SW[αMeD][Ala(pyrimidin-5-yl)]Q[Dab]G[dPro(4R-(4-pyridylmethyl))]
modifications: lactam (positions not given here); also: macrolactam ring, closure sites not given here
B14: SEQ ID NO: 202 (peptide)
peptide: cyclo([Bip(4'-COOH)][Ala(1-bicyclo(1.1.1)pentyl)][Phe(4-COOH)]G[Pro(cis-4-F)][Trp(βS-Me,4-F)][Aib]SW[αMeD][aThr]Q[Dab]G[dPro(4R-(4-pyridylmethyl))])
modifications: ring closure inferred; not fully specified (bridges); printed as Bip4CO2H-AlaPent-Phe4COOH-G-Proc4F-SbMeW4F-Aib-S-W-aMeD-alT-Q-Dab-G-dProc4CH24Pal, cyclic (macrolactam)
B15: SEQ ID NO: 198 (peptide)
peptide: [Phe(4-(5-CO2H-2-pyrimidyl))][Ala(1-bicyclo(1.1.1)pentyl)][Phe(4-COOH)]G[Pro(cis-4-F)][SbMcW4F][Aib]SW[Aib][Ala(pyrimidin-5-yl)]Q[Dab]G[dPro(4R-(4-pyridylmethyl))]
modifications: lactam (positions not given here); also: macrolactam ring, closure sites not given here
B16: SEQ ID NO: 200 (peptide)
peptide: cyclo([Bip(4'-COOH)][4Pal][Phe(4-COOH)]G[Pro(cis-4-F)][Trp(βS-Me,4-F)][Aib]SW[αMeD][Ala(4-THP)]Q[Dab]G[dPro(4R-(4-pyridylmethyl))])
modifications: ring closure inferred; not fully specified (bridges); printed as Bip4CO2H-4Pal-Phe4COOH-G-Proc4F-SbMeW4F-Aib-S-W-aMeD-AlaTHP4-Q-Dab-G-dProc4CH24Pal, cyclic (macrolactam)
B17: SEQ ID NO: 205 (peptide)
peptide: cyclo([Bip(4'-COOH)][4Pal][Phe(4-COOH)]G[Pro(cis-4-F)][Trp(βS-Me,4-F)][Aib]SW[Aib][Ala(pyrimidin-5-yl)]Q[Dab][Sar][dPro(4R-(4-pyridylmethyl))])
modifications: ring closure inferred; not fully specified (bridges); printed as Bip4CO2H-4Pal-Phe4COOH-G-Proc4F-SbMeW4F-Aib-S-W-Aib-PyrimAla-Q-Dab-Sar-dProc4CH24Pal, cyclic (macrolactam)
B18: SEQ ID NO: 192 (peptide)
peptide: [Bip(4'-COOH)][Ala(1-bicyclo(1.1.1)pentyl)][Phe(4-COOH)]G[cisHyp][Trp(βS-Me,4-F)][Aib]SW[d(αMeS)][Ala(4-THP)]Q[Dab]G[dPro(4R-(4-pyridylmethyl))]
modifications: lactam (positions not given here); also: macrolactam ring, closure sites not given here
B19: SEQ ID NO: 196 (peptide)
peptide: [Phe(4-(4-Ac-piperazinyl))][4Pal][Phe(4-COOH)]G[cisHyp][Trp(βS-Me,4-F)][Aib]SW[Aib][Ala(pyrimidin-5-yl)]Q[Dab]G[dPro(4R-Bzl(4-F))]
modifications: lactam (positions not given here); also: macrolactam ring, closure sites not given here

Each binder was assayed against Recombinant human IL-1β (BioLegend 579404) (human, UniProt P01584 117-269) (assay: cell-based or functional assay).

**Q.** Which “MRC5 IC50” value does the source give for B1 here?
**A.** Its value is 0.017 nM.

**Q.** B2 was tested. Which “MRC5 IC50” value did it give?
**A.** The value was 0.022 nM.

**Q.** With B3 as the binder, how does the “MRC5 IC50” value read?
**A.** The value was 0.013 nM.

**Q.** With B4 as the binder, how does the “MRC5 IC50” value read?
**A.** The value was 0.032 nM.

**Q.** How did the “MRC5 IC50” value turn out when B5 was run?
**A.** Its value is 0.019 nM.

**Q.** Which “MRC5 IC50” value does the source give for B6 here?
**A.** Its value is 0.036 nM.

**Q.** How did the “MRC5 IC50” value turn out when B7 was run?
**A.** The value was 0.016 nM.

**Q.** For B8, which “MRC5 IC50” value is on record?
**A.** Its value is 0.021 nM.

**Q.** How did the “MRC5 IC50” value turn out when B9 was run?
**A.** Its value is 0.014 nM.

**Q.** With B10 as the binder, how does the “MRC5 IC50” value read?
**A.** Its value is 0.019 nM.

**Q.** For B11, which “MRC5 IC50” value is on record?
**A.** Its value is 0.016 nM.

**Q.** With B12 as the binder, how does the “MRC5 IC50” value read?
**A.** The value was 0.011 nM.

**Q.** B13 was tested. Which “MRC5 IC50” value did it give?
**A.** Its value is 0.02 nM.

**Q.** With B14 as the binder, how does the “MRC5 IC50” value read?
**A.** Its value is 0.013 nM.

**Q.** B15 was tested. Which “MRC5 IC50” value did it give?
**A.** The value was 0.024 nM.

**Q.** B16 was tested. Which “MRC5 IC50” value did it give?
**A.** The value was 0.014 nM.

**Q.** With B17 as the binder, how does the “MRC5 IC50” value read?
**A.** Its value is 0.028 nM.

**Q.** With B18 as the binder, how does the “MRC5 IC50” value read?
**A.** The value was 0.021 nM.

**Q.** B19 was tested. Which “MRC5 IC50” value did it give?
**A.** The value was 0.038 nM.
